According to patent US20100196266A1 (published 2010):

Experiments:
[1] = biological target: T1, human leukocyte antigen-DR (HLA-DR) on human lymphoma and leukemia cell lines and human lymphocytes (human); assay: flow cytometry, WAC (CLL) cells; no mAb 15.8
[2] = biological target: T1, human leukocyte antigen-DR (HLA-DR) on …; assay: flow cytometry, 697 (ALL) cells; no mAb 4.9
[3] = biological target: T1, human leukocyte antigen-DR (HLA-DR) on …; assay: flow cytometry, MEC-1 (CLL) cells; no mAb 4.7
[4] = biological target: T1, human leukocyte antigen-DR (HLA-DR) on …; assay: flow cytometry, RS4;11 (ALL) cells; no mAb 6.4
[5] = biological target: T1, human leukocyte antigen-DR (HLA-DR) on …; assay: flow cytometry, GDM-1 (AML) cells; no mAb 16.8
[6] = biological target: T1, human leukocyte antigen-DR (HLA-DR) on …; assay: flow cytometry, K562 (CML) cells; no mAb 3.2
[7] = biological target: T1, human leukocyte antigen-DR (HLA-DR) on …; assay: flow cytometry, REH (ALL) cells; no mAb 3.9
[8] = biological target: T1, human leukocyte antigen-DR (HLA-DR) on …; assay: flow cytometry, Kasumi-3 (AML) cells; no mAb 9.6
[9] = biological target: T1, human leukocyte antigen-DR (HLA-DR) on …; assay: flow cytometry, MN60 (ALL) cells; no mAb 8.1
[10] = biological target: T1, human leukocyte antigen-DR (HLA-DR) on …; assay: indirect flow cytometry, Namalwa cells, FITC-GAM; none 2.91
[11] = biological target: T1, human leukocyte antigen-DR (HLA-DR) on …; assay: flow cytometry, Granta-519 (MCL) cells; no mAb 15.3
[12] = biological target: T1, human leukocyte antigen-DR (HLA-DR) on …; assay: flow cytometry, Jeko-1 (MCL) cells; no mAb 14.3
[13] = biological target: T1, human leukocyte antigen-DR (HLA-DR) on …; assay: flow cytometry, Kasumi-1 (AML) cells; no mAb 18.2
[14] = biological target: T1, human leukocyte antigen-DR (HLA-DR) on …; assay: flow cytometry, HC-1 (hairy cell leukemia) cells; no mAb 4.8
[15] = biological target: T2, human CD22 on cells (human, UniProt P20273 20-847); assay: flow cytometry, WAC (CLL) cells; no mAb 15.8
T2 construct: whole, on cells

[16] = biological target: T2, human CD22 on cells; assay: flow cytometry, 697 (ALL) cells; no mAb 4.9
[17] = biological target: T2, human CD22 on cells; assay: flow cytometry, MEC-1 (CLL) cells; no mAb 4.7
[18] = biological target: T2, human CD22 on cells; assay: flow cytometry, RS4;11 (ALL) cells; no mAb 6.4
[19] = biological target: T2, human CD22 on cells; assay: flow cytometry, GDM-1 (AML) cells; no mAb 16.8
[20] = biological target: T2, human CD22 on cells; assay: flow cytometry, K562 (CML) cells; no mAb 3.2
[21] = biological target: T2, human CD22 on cells; assay: flow cytometry, REH (ALL) cells; no mAb 3.9
[22] = biological target: T2, human CD22 on cells; assay: flow cytometry, Kasumi-3 (AML) cells; no mAb 9.6
[23] = biological target: T2, human CD22 on cells; assay: flow cytometry, MN60 (ALL) cells; no mAb 8.1
[24] = biological target: T2, human CD22 on cells; assay: indirect flow cytometry, Namalwa cells, FITC-GAM; none 2.91
[25] = biological target: T2, human CD22 on cells; assay: flow cytometry, Granta-519 (MCL) cells; no mAb 15.3
[26] = biological target: T2, human CD22 on cells; assay: flow cytometry, Jeko-1 (MCL) cells; no mAb 14.3
[27] = biological target: T2, human CD22 on cells; assay: flow cytometry, Kasumi-1 (AML) cells; no mAb 18.2
[28] = biological target: T2, human CD22 on cells; assay: flow cytometry, HC-1 (hairy cell leukemia) cells; no mAb 4.8
[29] = biological target: T3, human CD74 on cells (human, UniProt P04233 1-296); assay: flow cytometry, WAC (CLL) cells; no mAb 15.8
T3 construct: whole, on cells
T3 sequence (looked up): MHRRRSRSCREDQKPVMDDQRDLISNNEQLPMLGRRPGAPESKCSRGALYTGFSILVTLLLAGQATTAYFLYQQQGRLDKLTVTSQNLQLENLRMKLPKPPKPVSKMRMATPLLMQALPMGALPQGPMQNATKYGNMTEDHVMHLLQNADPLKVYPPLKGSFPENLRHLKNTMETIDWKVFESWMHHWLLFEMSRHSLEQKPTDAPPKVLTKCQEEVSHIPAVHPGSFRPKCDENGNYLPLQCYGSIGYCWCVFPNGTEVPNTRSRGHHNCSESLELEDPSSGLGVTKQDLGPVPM

[30] = biological target: T3, human CD74 on cells; assay: flow cytometry, 697 (ALL) cells; no mAb 4.9
[31] = biological target: T3, human CD74 on cells; assay: flow cytometry, MEC-1 (CLL) cells; no mAb 4.7
[32] = biological target: T3, human CD74 on cells; assay: flow cytometry, RS4;11 (ALL) cells; no mAb 6.4
[33] = biological target: T3, human CD74 on cells; assay: flow cytometry, GDM-1 (AML) cells; no mAb 16.8
[34] = biological target: T3, human CD74 on cells; assay: flow cytometry, K562 (CML) cells; no mAb 3.2
[35] = biological target: T3, human CD74 on cells; assay: flow cytometry, REH (ALL) cells; no mAb 3.9
[36] = biological target: T3, human CD74 on cells; assay: flow cytometry, Kasumi-3 (AML) cells; no mAb 9.6
[37] = biological target: T3, human CD74 on cells; assay: flow cytometry, MN60 (ALL) cells; no mAb 8.1
[38] = biological target: T3, human CD74 on cells; assay: indirect flow cytometry, Namalwa cells, FITC-GAM; none 2.91
[39] = biological target: T3, human CD74 on cells; assay: flow cytometry, Granta-519 (MCL) cells; no mAb 15.3
[40] = biological target: T3, human CD74 on cells; assay: flow cytometry, Jeko-1 (MCL) cells; no mAb 14.3
[41] = biological target: T3, human CD74 on cells; assay: flow cytometry, Kasumi-1 (AML) cells; no mAb 18.2
[42] = biological target: T3, human CD74 on cells; assay: flow cytometry, HC-1 (hairy cell leukemia) cells; no mAb 4.8
[43] = biological target: T4, human CD20 on cells (human, UniProt P11836 1-297); assay: indirect flow cytometry, Namalwa cells, FITC-GAM; none 2.91
T4 construct: whole, on cells
T4 sequence (looked up): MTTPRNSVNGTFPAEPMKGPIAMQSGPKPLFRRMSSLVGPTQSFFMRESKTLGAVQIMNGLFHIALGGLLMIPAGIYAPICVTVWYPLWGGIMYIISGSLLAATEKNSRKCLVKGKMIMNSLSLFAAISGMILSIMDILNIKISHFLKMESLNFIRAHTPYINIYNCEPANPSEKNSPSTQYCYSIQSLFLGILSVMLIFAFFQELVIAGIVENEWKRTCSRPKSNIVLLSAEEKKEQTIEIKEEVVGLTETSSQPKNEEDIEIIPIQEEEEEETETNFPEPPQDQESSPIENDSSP

B1: murine monoclonal antibody L243 (mL243) (antibody, V domains shown)
VH: QIQLVQSGPELKKPGETVKISCKASGFTFTNYGMNWVKQAPGKGLKWMGWINTYTREPTYADDFKGRFAFSLETSASTAYLQINNLKNEDTAKYFCARDITAVVPTGFDYWGQGTTLTVSS
VL: DIQMTQSPASLSVSVGETVTITCRASENIYSNLAWYRQKQGKSPQLLVFAASNLADGVPSRFSGSGSGTQYSLKINSLQSEDFGDYYCQHFWTTPWAFGGGTNLEIKR
notes: Murine IgG2a from hybridoma ATCC HB55; also called murine L243; mL234
mean FL [1]: 788
mean FL [2]: 259
mean FL [3]: 1700
mean FL [4]: 152
mean FL [5]: 1070
mean FL [6]: 4.9
mean FL [7]: 2090
mean FL [8]: 565
mean FL [9]: 1220
GEO MEAN Fluorescence [10]: 595
mean FL [11]: 2110
mean FL [12]: 1900
mean FL [13]: 24
mean FL [14]: 515

B2: murine LL2 (anti-human CD22) (antibody, V domains shown)
VH: QVQLQESGAELSKPGASVKMSCKASGYTFTSYWLHWIKQRPGQGLEWIGYINPRNDYTEYNQNFKDKATLTADKSSSTAYMQLSSLTSEDSAVYYCARRDITTFYWGQGTTLTVSS
VL: DIQLTQSPSSLAVSAGENVTMSCKSSQSVLYSANHKNYLAWYQQKPGQSPKLLIYWASTRESGVPDRFTGSGSGTDFTLTISRVQVEDLAIYYCHQYLSSWTFGGGTKLEIKR
mean FL [15]: 20.1
mean FL [16]: 15.9
mean FL [17]: 49
mean FL [18]: 20.9
mean FL [19]: 28.5
mean FL [20]: 4.3
mean FL [21]: 16.8
mean FL [22]: 13.9
mean FL [23]: 17.1
GEO MEAN Fluorescence [24]: 10.5
mean FL [25]: 28.6
mean FL [26]: 25
mean FL [27]: 20.9
mean FL [28]: 17.8

B3: murine LL1 (anti-human CD74) (antibody, V domains shown)
VH: QIQLVQSGPELKKPGETVKVTCKTSGYTFTNYGVNWIKQTPGEGLQWMGWINPNTGEPTFDDDFKGRFAFSLESSASTAFLQISNLKNEDMGTYFCSRSRGKNEAWFAYWGQGTLVTVSE
VL: DVVMTQTPLSLPVSLGDQASISCRSSQSLVHRNGNTYLHWYLQKPGQSPKLLIYTVSNRFSGVPDRFSGSGSGTDFTLKISRVEAEDLGLYFCSQSSHVPPTFGAGTKLEI
mean FL [29]: 43.6
mean FL [30]: 20.6
mean FL [31]: 44.7
mean FL [32]: 24.3
mean FL [33]: 69.5
mean FL [34]: 7
mean FL [35]: 61.1
mean FL [36]: 18.4
mean FL [37]: 25.9
GEO MEAN Fluorescence [38]: 17.3
mean FL [39]: 50.8
mean FL [40]: 32.7
mean FL [41]: 23.8
mean FL [42]: 36.7

B4: 1F5 (murine anti-CD20 mAb) (antibody, V domains shown)
VH: QVQLRQPGAELVKPGASVKMSCKASGYTFTSYNMHWVKQTPGQGLEWIGAIYPGNGDTSYNQKFKGKATLTADKSSSTAYMQLSSLTSEDSAVYYCARSHYGSNYVDYFDYWGQGTTLTVSS
VL: DIVLSQSPAILSASPGEKVTMTCRASSSLSFMHWYQQKPGSSPKPWIYATSNLASGVPARFSGSGSGTSYSLTISRVEAEDAATYFCHQWSSNPLTFGAGTKLELK
GEO MEAN Fluorescence [43]: 3.83
